Source: paper PMC4571291 (2015)

Legend:
actin [1] = biological target: T1, actin (UniProt P68135 1-377); test: ITC; first site (KD1)
actin [2] = biological target: T1, actin; test: ITC; second site (KD2)
actin [3] = biological target: T1, actin; test: ITC

Row | Kd (actin [1]) | Kd (actin [2]) | Kd (actin [3]) | Binder
1 | 154 nM | 600 nM |  | TL2_(ABS2) (domain or fragment) VIKPTQYKPVPDEEPNSTDVEETLERIKNNDPKLEEVNLNNIRNIPIPTLKAYAEALKENSYVKKFSLANTHADDSAAMAIAEMLKVNEHITNVNVESNFITGKGILAIMRALQHNTVLTELRFHNQRHIMGSQVEMEIVKLLKENTTLLRLGYHFELPGPRMSMTSILTRNMDKQRQKRLQEQKQQE
2 |  |  | 15000 nM | Tmod1_(ABS1) (domain or fragment) MSYRRELEKYRDLDEDEILGALTEEELRTLENELDELDPDNALLPAGLRQKDQTTKAPTGPFKREELLDHLEKQAKEFKDREDLVPYTGEKRGKVWVPKQKPLDPVLESVTLEPELEEALANASDAELCDIAAILGMHTLMSNQQYYQALSSSSIMNKEGLNSVIKPTQYKPVPDEEPNSTDVEETLERIKNNDPKLEEVNLNNIRNIPIPTLKAYAEALKENSYVKKFSIVGTRSNDPVAYALAEMLKENKVLKTLNVESNFISGAGILRLVEALPYNTSLVEMKIDNQSQPLGNKVEMEIVSMLEKNATLLKFGYHFTQQGPRLRASNAMMNNNDLVRKRRLADLTGPIIPKCRSGV

Further lines, the binder ahead of its results:

Row | Binder | Kd (actin [1]) | Kd (actin [2]) | Kd (actin [3])
3 | TL1_(ABS2) (domain or fragment) VIKPTQYKPVPDEEPNSTDVEETLERIKNNDPKLEEVNLNNIRNIPIPTLKAYAEALKENSYVKKFALANTRADDHVAFAIAIMLKANKTITSLNLDSNHITGKGILAIFRALLQNNTLTELRFHNQRHICGGKTEMEIAKLLKENTTLLKLGYHFELAGPRMTVTNLLSRNMDKQRQKRLQEQRQAQ |  | 130 nM | 
4 | Lmod2_(ABS2) (domain or fragment) NGRNTESPAAIHPCGNPTVIEDALDKIKSNDPDTTEVNLNNIENITTQTLTRFAEALKDNTVVKTFSLANTHADDSAAMAIAEMLKVNEHITNVNVESNFITGKGILAIMRALQHNTVLTELRFHNQRHIMGSQVEMEIVKLLKENTTLLRLGYHFELPGPRMSMTSILTRNMDKQRQKRLQEQKQQE |  | 1700 nM | 
